B1: Comparator 1 (antibody, INN chains, looked up, V domains shown)
VH: EVQLVQSGAEVKKPGESLRISCKGSGYSFSTYWISWVRQMPGKGLEWMGKIYPGDSYTNYSPSFQGQVTISADKSISTAYLQWSSLKASDTAMYYCARGYGIFDYWGQGTLVTVSS
VL: SYELTQPPSVSVSPGQTASITCSGDNIGDQYAHWYQQKPGQSPVLVIYQDKNRPSGIPERFSGSNSGNTATLTISGTQAMDEADYYCATYTGFGSLAVFGGGTKLTVLG
B2: REGN2810 (antibody, INN chains, looked up, V domains shown)
VH: EVQLLESGGVLVQPGGSLRLSCAASGFTFSNFGMTWVRQAPGKGLEWVSGISGGGRDTYFADSVKGRFTISRDNSKNTLYLQMNSLKGEDTAVYYCVKWGNIYFDYWGQGTLVTVSS
VL: DIQMTQSPSSLSASVGDSITITCRASLSINTFLNWYQQKPGKAPNLLIYAASSLHGGVPSRFSGSGSGTDFTLTIRTLQPEDFATYYCQQSSNTPFTFGPGTVVDFR

Key:
[1] = target: human 4-1BB expressed with a C-terminal myc-myc-hexahistidine tag (h4-1BB.mmH) (human); test: blocking ELISA, 0.25 nM h4-1BB-mmh binding to coated 6His-Flag-h4-1BBL
[2] = target: human PD1 on Jurkat/AP1-luc/hPD1 cells (human) (UniProt Q15116); test: cell-based or functional assay
human PD1 on Jurkat/AP1-luc/hPD1 cells (human), sequence (Q15116 25-288): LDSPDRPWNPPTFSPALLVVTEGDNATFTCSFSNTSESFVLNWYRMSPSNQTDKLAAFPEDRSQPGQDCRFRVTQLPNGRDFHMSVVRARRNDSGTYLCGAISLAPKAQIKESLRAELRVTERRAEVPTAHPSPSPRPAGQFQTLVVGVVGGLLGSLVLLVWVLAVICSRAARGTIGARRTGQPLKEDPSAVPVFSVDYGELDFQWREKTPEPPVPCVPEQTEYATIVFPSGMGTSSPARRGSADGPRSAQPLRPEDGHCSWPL

human 4-1BB expressed with a C-terminal myc-myc-hexahistidine tag (h4-1BB.mmH) (human), sequence (chain, as listed by the source limits assumed): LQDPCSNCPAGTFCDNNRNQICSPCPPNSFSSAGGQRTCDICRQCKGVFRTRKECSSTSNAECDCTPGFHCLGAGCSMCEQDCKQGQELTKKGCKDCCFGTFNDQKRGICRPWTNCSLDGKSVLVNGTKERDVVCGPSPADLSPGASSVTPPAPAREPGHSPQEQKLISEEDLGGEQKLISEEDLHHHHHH

Binder | % Blocking at 100 nM mAb [1] [%] | AP-1 luciferase EC50, Jurkat/AP1-luc/hPD1 + WSU-DLCL2/hPD-L1 + CD20xCD3 [2] [nM] | AP-1 luciferase MAX (RLU), Jurkat/AP1-luc/hPD1 + WSU-DLCL2/hPD-L1 + CD20xCD3 [2] [RLU]
B1 | 72 |  | 
B2 |  | 0.29 | 1.1e+06

Reference: patent US20250043017A1
